Drawing on paper doi:10.1101/2022.10.17.512557, this text covers percent of total 20S in the free 20S band (neurite fraction) for one substance.

The target of this test is proteasomal catalytic (20S) particle (rat (endogenous in cultured cortical neurons)) (UniProt P48004). In words: native gel or EMSA.
Chain of UniProt P48004 (P48004 whole entry, looked up): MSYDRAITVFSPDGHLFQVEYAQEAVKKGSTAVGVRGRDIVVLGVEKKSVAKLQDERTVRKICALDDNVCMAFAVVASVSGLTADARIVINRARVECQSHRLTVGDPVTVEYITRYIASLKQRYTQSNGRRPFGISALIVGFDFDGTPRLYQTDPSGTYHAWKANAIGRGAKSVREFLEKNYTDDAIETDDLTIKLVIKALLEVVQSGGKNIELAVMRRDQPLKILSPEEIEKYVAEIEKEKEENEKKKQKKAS

Substance “proteasomal regulatory (19S) particle (from UniProt P62193 1-440) (complex)” came in with a percent of total 20S in the free 20S band (neurite fraction) of 50%.
